Columns and labels:
CD44 = target: T1, CD44 (Homo sapiens, UniProt P16070); test: Concentration-dependent binding to CD44, direct ELISA
T1 construct: purchased R & D systems
Experimental: High-binding microtiter plates (Corning, Sigma Aldrich, USA) were coated with rhPRG4 (Mr≅240 KDa), high molecular weight HA (HMW HA; Mr≈1,500 KDa) (R & D System, USA), medium molecular weight HA (MMW HA; Mr≈300 KDa) (R & D System) and vitronectin (Mr≅75 KDa) (Sigma Aldrich) at 400 μg/mL in PBS buffer (100 μL per well) overnight at 4° C. rhPRG4 is a full-length product produced by CHO-M cells (Lubris, Framingham, Mass., USA). Following washing with PBS+0.1% Tween 20, wells were blocked with 2% bovine serum albumin (BSA; 300 μL per well) for at least 2 hours at room temperature. CD44-IgG1Fc (R & D systems) or IgG1Fc (R & D systems), each at 1 μg/mL (100 μl per well), were added to the plate and incubated for 60 min at room temperature. Following washing with PBS+0.1% tween 20, anti-IgG1Fc-HRP (Sigma Aldrich) was added at 1:10,000 dilution (100 μL per well) and incubated for 60 min at room temp. Following washing with PBS+0.1% tween 20, the assay was developed using 1-step Turbo TMB ELISA reagent (ThermoScientific, USA) and absorbance was measured at 450 nm. The data represents an average of 4 independent assays, each with triplicate wells per group.
The concentration-dependent binding of rhPRG4, HMW HA and MMW HA to CD44 was performed by coating microtiter plates with 400, 200, 100, 20, 4, 2 and 0.1 μg/mL of the macromolecules. The assay was performed as described above. The absorbance values in the IgG1Fc wells were subtracted from the absorbance values in the CD44 IgG1Fc wells and the corrected CD44 IgG1Fc absorbance values were normalized to those of the 400 μg/mL rhPRG4 group and data was expressed as percentage binding to CD44. The concentration-dependent binding of rhPRG4, HMW HA and MMW HA to recombinant CD44 is depicted in FIG. 1B. […] The data represents an average of 4 independent assays, each with triplicate wells per group.

whole citrated blood = test: Lubricin on LPS-mediated inflammatory cytokine generation in whole blood; format: cell-based, human; conditions: LPS 10 ng/mL then lubricin 0.57 mg/mL, versus LPS alone
Experimental: The effect of lubricin on LPS-mediated inflammatory cytokine generation was studied using Biochip Array technology. In these studies LPS alone at 10 ng/mL and LPS pre-supplementation at 10 ng/mL followed by lubricin supplementation at 0.57 mg/mL were compared in the whole citrated blood for the generation of various inflammatory cytokines. All samples were incubated for 60 minutes and centrifuged to obtain plasma. This plasma was subsequently analyzed using the biochip array for inflammatory cytokines. LPS was supplemented to whole blood in a 1:10 dilution.

[1] = test system: sodium urate crystal induced joint pain; test: Urate crystal gout model, Von Frey paw withdrawal; format: in vivo; conditions: rhPRG4 injection after urate crystals; two rats per group
Experimental: Male Lewis rats (10 weeks old; n=4) were injected with MSU suspension (50 μL; 5 mg/mL; Invivogen, California) in their knee joints. At 1 hour following MSU injection, rat knee joints were treated with 50 μL phosphate buffered saline (PBS; n=2) or rhPRG4 (50 μL; 2 mg/mL) (n=2). Paw withdrawal pressures were measured using an electronic Von Frey instrument, and data is present as percent change from baseline values.
Rats undergoing injection of sodium urate crystals were studied as a model of gout. 24 hours following the sodium urate crystal administration, rats developed joint pain. Two rats received saline while another two rats received rhPRG4 injection 24 hours after the urate crystals were introduced. These rats were studied every 12 hours utilizing the Von Frey method. This method determines afferent pain sensitization as a result of joint inflammation by probing the paws of the affected limb with a thin filament wire.

T1 sequence (P16070 with tags, fused parts or gaps limits assumed): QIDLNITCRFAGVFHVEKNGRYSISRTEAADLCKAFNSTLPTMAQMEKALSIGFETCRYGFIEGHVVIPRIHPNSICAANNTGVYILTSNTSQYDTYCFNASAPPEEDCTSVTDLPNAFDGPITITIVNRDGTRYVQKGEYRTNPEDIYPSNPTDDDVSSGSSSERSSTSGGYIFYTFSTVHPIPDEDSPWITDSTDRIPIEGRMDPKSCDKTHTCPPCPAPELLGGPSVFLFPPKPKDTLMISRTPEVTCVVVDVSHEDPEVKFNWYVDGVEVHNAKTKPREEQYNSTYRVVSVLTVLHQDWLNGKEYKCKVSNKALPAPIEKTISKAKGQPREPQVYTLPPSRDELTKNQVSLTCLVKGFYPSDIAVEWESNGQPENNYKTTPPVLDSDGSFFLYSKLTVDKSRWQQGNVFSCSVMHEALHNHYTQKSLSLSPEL

Substance: rhPRG4: full-length recombinant human PRG4 (lubricin) glycoprotein produced by CHO-M cells (Lubris), Mr≅240 KDa
- affinity of concentration-dependent binding to CD44 (CD44): comparable affinity to HMW HA
- percentage CD44 binding, difference between rhPRG4, HMW HA and MMW HA-coated wells (CD44; coating 0.1 μg/mL): no significant differences
- percentage recombinant CD44 binding compared to MMW HA coated wells (CD44; coating 200 μg/mL, p<0.001): significantly higher
- percentage recombinant CD44 binding compared to HMW HA or MMW HA-coated wells (CD44; coating 400, 100, 20, 4 and 2 μg/mL, p<0.001): significantly higher
- IL-4, IL-6, IL-8, IL-10, VEGF, TNF-α, IL-1β, MCP-1 and EGF (whole citrated blood; 60 minutes): decrease
- EGF, IL10, VEGF, MCP1, IL1b and TNF levels (whole citrated blood): marked decrease
- pain (Von Frey method) versus rats which received placebo [1]: less pain
